# Test system: NC(=O)N[C@H]1NC(=O)NC1=O
# Assay: purified protein
# Conditions: free enzyme, 70 nM monomer, 20 mM potassium phosphate, pH 7.4, 37 °C, racemic allantoin added, table states (S)-allantoin, unclear whether concentration counts racemate or S form
substance,measurement,value
puuE (allantoinase from Pseudomonas fluorescens) (Pseudomonas fluorescens Pf0-1),Km,1350 ± 430 µM
same,kcat,102 s⁻¹
same,kcat/Km,75200 M⁻¹ s⁻¹

# Source: paper PMC6983136
